Measured values published in the supplement of paper PMC10567573.

B1: ZBTB22 (parent)
chain: FSSSSQEAFAASAVGSGERRGGGP

Variants of: B1
Test: protein stability index of a GFP-peptide fusion (GPS, HEK-293T) (PSI 1-6); higher = more stable
Details: c terminus: a fixed tail appended
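Further: lentivirally expressed fusions sorted by FACS into six bins by GFP to DsRed ratio, PSI derived from sequencing read proportions per bin multiplied by bin number.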

Protein stability index: each site, then its substitutions
S3: G 2.35 | R 3.54 | L 4.05 | C 2.97 | I 4.37 | Q 4.07 | A 3.41 | M 4.2 | V 4.41 | T 4.04 | D 4.36 | E 4.38 | W 2.86 | F 3.37 | K 4.3
V14: G 3.56 | A 3.76 | Y 2.76 | M 3.25 | H 3.86 | C 3.36 | Q 3.52 | N 3.33 | E 3.85 | W 1.32 | S 3.25 | L 3.77 | F 2.99
R19: N 3.49 | P 3.36 | G 3.82 | M 3.35 | T 3.78 | I 3.23 | V 3.46 | F 3.15 | D 2.53 | C 3.07 | E 4.24 | K 3.41 | L 2.87 | H 3.34 | W 2.04 | Q 3.47 | S 3.86
Q6: T 2.77 | G 4.22 | I 2.5 | S 2.49 | P 3.03 | N 3.32 | V 2.6 | R 3 | H 2.81 | A 2.74 | E 4.4 | L 2.85 | C 3.77
E18: K 3.31 | D 2.98 | H 3.65 | C 2.96 | S 2.28 | W 2.92 | N 2.55 | A 3.48 | Q 3.24 | I 2.36 | L 2.85 | M 2.96 | Y 2.69
A13: E 3.93 | T 2.71 | I 3.04 | M 2.79 | N 2.57 | C 2.25 | V 3.87 | S 3.31 | D 3.9 | G 3.01 | P 3.43 | R 3.78 | L 3.13 | Q 3.28
G17: T 3.08 | W 2.85 | D 3.88 | V 3.48 | Q 3.31 | M 3.35 | N 3.28 | H 3.62 | R 3.23 | A 3.02 | L 3.12 | K 2.63 | E 3.52 | Y 3.45 | C 4.17 | I 2.74
F9: T 5.26 | V 5.24 | L 4.92 | C 4.57 | Q 5.09 | A 5.51 | R 4.35 | K 5.2 | W 1.67 | S 5.01 | E 5.92 | H 4.66
S12: C 2.54 | H 2.94 | I 2.26 | R 2.61 | E 3.58 | D 3.48 | Y 1.85 | N 3.26 | G 3.61 | T 3.02 | P 3.36 | Q 3.71 | K 3.68 | F 1.47 | A 3.56
A8: I 2.75 | D 5.19 | Y 1.88 | M 2.17 | L 2.25 | P 3.94 | C 2.47 | F 2.55 | G 4.44 | E 4.74 | T 3.46
S16: Q 2.96 | T 3.61 | R 3.35 | G 3.18 | D 3.63 | L 2.75 | W 2.17 | F 2.4 | Y 2.96 | V 3.52 | K 3.34 | I 3.06
E7: Q 3.67 | N 2.84 | T 2.78 | R 2.36 | Y 1.54 | D 3.99 | M 2.37 | A 2.09 | L 1.55 | V 1.96 | P 3.25 | C 1.64
G22: A 3.6 | V 3.33 | P 3.7 | T 3.72 | R 3.25 | Q 3.83 | H 3.83 | K 2.15 | I 3.3 | E 3.66 | D 3.11
A11: S 3.88 | D 4.39 | Y 3.13 | W 1.86 | M 3.4 | V 2.13 | C 1.95 | F 2.19 | G 2.86 | H 3.02 | R 3.74 | T 3.32 | Q 3.44 | I 2.32 | N 3.88 | E 3.85 | L 3.04
F1: G 5.5 | V 5.17 | E 5.43 | H 4.75 | P 5.33 | Q 5.01 | L 5.29 | K 5.04 | S 4.85 | I 5.3 | M 5.13 | N 5.02 | C 3.94 | W 5.09
G21: L 3.05 | I 3.48 | V 2.84 | Y 3.22 | M 3.4 | H 3.03 | W 2.31 | R 3.35 | A 3.64 | F 3.22 | S 3.85 | Q 3.73 | E 3.68 | D 4.06 | N 3.45
R20: G 3.14 | P 4.34 | L 3.78 | I 3.17 | Y 3.3 | Q 3.71 | A 3.42 | S 3.68 | W 2.21 | K 3.37 | T 3.63 | V 3.41 | F 2.97 | M 3.3
G15: H 3.24 | R 2.78 | C 2.94 | I 3.3 | T 3.12 | S 3.61 | A 3.09 | V 2.53 | P 3.58 | D 4.16 | L 3.89 | M 3.25 | Q 3.26 | E 3.85
G23: K 4.06 | P 3.54 | H 3.39 | I 2.74 | T 3.27 | R 3.48 | F 3.75 | W 1.43 | D 4.21 | A 3.57 | Y 2.87 | L 2.94 | E 3.53 | V 3.03
S5: P 4.56 | L 3.66 | K 3.91 | N 3.61 | Q 4.35 | R 3.7 | I 3.62 | D 4.27 | A 2.71 | T 4.41 | W 2.87 | H 2.86 | Y 1.95
S2: Y 4.54 | M 4.01 | V 2.29 | I 2.26 | L 3.13 | H 1.77 | E 5.12 | R 4.52 | C 2.62 | Q 2.55 | G 2.2 | K 4.86 | N 4.13
S4: D 3.98 | K 2.65 | Q 3.09 | L 3.65 | I 3.62 | W 1.68 | Y 3.74 | N 3.52 | F 2.88 | A 3.14 | V 3.87 | P 4.25 | R 2.57 | G 1.93 | E 4.28
A10: V 2.58 | K 3.2 | F 2.41 | D 5.25 | Y 2.27 | R 3.33 | N 3.97 | P 3.89 | W 2.88 | L 3.26 | H 3.65 | G 3.75 | C 2.44 | I 2.44 | S 3.22
P24: Q 2.79 | C 3.21 | L 3.32 | N 3.29 | S 3.41 | F 2.73 | I 2.6 | D 3.89 | H 3.75 | R 3.03 | V 2.92 | W 2.22 | M 2.43 | K 3.33 | A 3.5 | Y 2.86
